Publication PMC5430726, “Grb2 carboxyl-terminal SH3 domain can bivalently associate with two ligands, in an SH3 dependent manner” (Scientific Reports, 2017)

Assays:
[1] = target: T1, Grb2 C-terminal SH3 domain (SH3C), residues 155-217 (mouse, UniProt Q60631 155-217); assay: ITC; SLP65 peptide titrated into the preformed Grb2 SH3C-Vav SH3N binary complex (gives Complex 1, Vav displaced); 20 mM sodium phosphate, 100 mM NaCl, pH 6.0, 25 °C; details: both partners purified
T1 construct: Uniformly 15N or 15N,13C labelled in the NMR titrations; monomer by glutaraldehyde cross-linking and SEC; also called Grb2 SH3C; Grb2 CSH3 domain; source: E. coli, purified (Ni2+-NTA chromatography); not shown: His tag, N-terminal, cleaved

[2] = target: T1, Grb2 C-terminal SH3 domain (SH3C), …; assay: ITC; free Grb2 SH3C in the cell (20 uM for the peptide, 40 uM for Vav) titrated with 280 uM SLP65 peptide or 600 uM Vav SH3N; 20 mM sodium phosphate, 100 mM NaCl, pH 6.0, 25 °C; one-site binding model; details: both partners purified

T1 sequence (Q60631 155-217): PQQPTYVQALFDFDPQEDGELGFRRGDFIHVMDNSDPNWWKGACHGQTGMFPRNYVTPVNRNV

Kd [2]: 3.55 ± 0.2 µM
dH [2]: -27.9 ± 0.628 kJ/mol
stoichiometry N [2]: 0.87 ± 0.02
B1: SLP65 peptide Ace-EKAPMVNRSTKPNSSS-NH2 (residues 201-216 of mouse SLP65) (peptide)
peptide: Ac-EKAPMVNRSTKPNSSS-NH2
notes: SLP65, mouse, residues 201-216; also called synthetic peptide; source: synthetic peptide
Kd with Vav SH3N prebound to Grb2 SH3C (Vav displaced) [1]: 33.3 ± 1.1 µM
dH with Vav SH3N prebound to Grb2 SH3C (Vav displaced) [1]: -24.69 ± 0.167 kJ/mol
